From PMC9177983, “Mechanism of transcription modulation by the transcription-repair coupling factor”

What was measured:
Mfd [1] = target: T1, Mfd (Escherichia coli, UniProt P30958 1-1148); experiment: SPR; 0.5 mM ATPgS; SPR: 30 mM Tris/HCl pH 7.6, 40 mM KCl, 5 mM MgCl2, 0.005% P20, 0.25 mM EDTA, 0.5 mM DTT, 0.5 mM ATPgS, 20 C; smFRET: 20 mM Tris/HCl pH 8.0, 40 mM KCl, 5 mM MgCl2, 1 mM 2-mercaptoethanol; details: protein: recombinant, tags: none stated
Mfd;RNAP core = Mfd;RNAP core (Escherichia coli;Escherichia coli, UniProt P30958;P0A7Z4;P0A8V2;P0A8T7;P0A800 1-1148;1-329;1-1342;1-1407;2-91, |); experiment: SPR; 0.5 mM ATPgS; Mfd titrated onto immobilized RNAP EC; SPR: 30 mM Tris/HCl pH 7.6, 40 mM KCl, 5 mM MgCl2, 0.005% P20, 0.25 mM EDTA, 0.5 mM DTT, 0.5 mM ATPgS, 20 C; smFRET: 20 mM Tris/HCl pH 8.0, 40 mM KCl, 5 mM MgCl2, 1 mM 2-mercaptoethanol; details: protein: recombinant;recombinant; tags: none stated;His; copies: 1;2;1;1;1; label: 3' bioTEG on NT; iCy3 on TS; transcription bubble with RNA:DNA hybrid
Mfd [2] = target: T1, Mfd; experiment: SPR; ATPgS; SPR: 30 mM Tris/HCl pH 7.6, 40 mM KCl, 5 mM MgCl2, 0.005% P20, 0.25 mM EDTA, 0.5 mM DTT, 0.5 mM ATPgS, 20 C; smFRET: 20 mM Tris/HCl pH 8.0, 40 mM KCl, 5 mM MgCl2, 1 mM 2-mercaptoethanol; details: protein: recombinant; tags: none stated; label: 3' bioTEG on NT; 9-nt non-complementary bubble (dT9 in NT); blunt ends
Mfd(R953A) = Mfd(R953A) (Escherichia coli, UniProt P30958 1-1148, R953A); experiment: SPR; 0.5 mM ATPgS; SPR: 30 mM Tris/HCl pH 7.6, 40 mM KCl, 5 mM MgCl2, 0.005% P20, 0.25 mM EDTA, 0.5 mM DTT, 0.5 mM ATPgS, 20 C; smFRET: 20 mM Tris/HCl pH 8.0, 40 mM KCl, 5 mM MgCl2, 1 mM 2-mercaptoethanol; details: protein: recombinant; tags: none stated; label: 5' biotin on AS18; 5' overhang 6 nt (template)

B1: NT_49_bio:TS_49 (dsDNA)
DNA 1: CACTACTGCGACTTACAGACATCGAGAGGGTAATGGCGAATAGCACTGA
DNA 2: TCAGTGCTATTCGCCATTACCCTCTCGATGTCTGTAAGTCGCAGTAGTG
modifications: internal Cy3 in TS_49 after nt 31
Mfd [1]; label: 3' bioTEG on NT, iCy3 on TS, blunt
  Kd: 170 ± 20 nM

B2: EC scaffold 49-mer (TS_49:NT_49_bio:RNA_15) (mixed)
DNA 1: TCAGTGCTATTCGCCATTACCCTCTCGATGTCTGTAAGTCGCAGTAGTG
DNA 2: CACTACTGCGACTTACAGACATCGAGAGGGTAATGGCGAATAGCACTGA
RNA: AUAUAUAUCGAGAGG
modifications: internal Cy3 in TS_49 after nt 31
Mfd;RNAP core
  Kd: 127 ± 6 nM

B3: 49-mer with 9-nt bubble (NT_49_bio_bubble:TS_49) (dsDNA)
DNA 1: CACTACTGCGACTTACAGACTTTTTTTTTGTAATGGCGAATAGCACTGA
DNA 2: TCAGTGCTATTCGCCATTACCCTCTCGATGTCTGTAAGTCGCAGTAGTG
Mfd [2]
  Kd: 395 ± 7 nM

B4: bio_dT40_S18 58-mer ssDNA (ssDNA)
DNA: TTTTTTTTTTTTTTTTTTTTTTTTTTTTTTTTTTTTTTTTGCCTCGCTGCCGTCGCCA
Mfd [1]; label: 5' biotin, single strand
  Kd: ~4000 nM

B5: Cy3_dT40_S18:bio_AS18_Cy5 (dsDNA)
DNA 1: TTTTTTTTTTTTTTTTTTTTTTTTTTTTTTTTTTTTTTTTGCCTCGCTGCCGTCGCCA
DNA 2: TGGCGACGGCAGCGAGGC
Mfd [1]; label: 5' Cy3, 5' biotin and 3' Cy5 on AS18, 18 bp with 5' overhang 40 nt
  Kd: 390 ± 10 nM

B6: dT40_S18:bio_AS18 (dsDNA)
DNA 1: TTTTTTTTTTTTTTTTTTTTTTTTTTTTTTTTTTTTTTTTGCCTCGCTGCCGTCGCCA
DNA 2: TGGCGACGGCAGCGAGGC
Mfd [1]; label: 5' biotin on AS18, 18 bp with 5' overhang 40 nt
  Kd: 300 ± 10 nM

B7: dT6_S18:bio_AS18 (dsDNA)
DNA 1: TTTTTTGCCTCGCTGCCGTCGCCA
DNA 2: TGGCGACGGCAGCGAGGC
Mfd(R953A)
  binding signal: 2.3 fold weaker Kd than wild type

B8: dT15_S18:bio_AS18 (dsDNA)
DNA 1: TTTTTTTTTTTTTTTGCCTCGCTGCCGTCGCCA
DNA 2: TGGCGACGGCAGCGAGGC
Mfd [1]; label: 5' biotin on AS18, 5' overhang 15 nt (template)
  Kd: 220 ± 10 nM

B9: S18:bio_AS18 (dsDNA)
DNA 1: GCCTCGCTGCCGTCGCCA
DNA 2: TGGCGACGGCAGCGAGGC
Mfd [1]; label: 5' biotin on AS18, blunt
  Kd: 90 ± 4 nM
